Experimental data from US9573983B2, “Compositions including I-domain antigen conjugate compounds and methods for treatment of autoimmune disorders” (University of Kansas, priority 2012, dated 2017).
Where “and” joins values, the source holds several entries; their conditions need not be identical. Identical values can stand only once.

What was measured:
[1] = test system: EAE mouse model; experiment: Suppression of EAE, prophylactic and vaccine-like treatment (Example 2); type: in vivo, SJL/J female mice; settings: for suppression of progress of EAE (clinical score, change in body weight, incidence of disease) / onset of disease: two i.v. injections, 26 nmol/injection, days 4 and 7; for onset of disease: I-domain controls; for onset of disease (clinical scores): IDAC molecules; for body weight change: p<0.05, days 12-24; for change in body weight: p<0.005, days 12-24
Protocol: Six-to-eight week old SJL/J female mice were immunized subcutaneously with 200 μg PLP139-151 peptide in a 0.2 ml emulsion consisting of equal volumes of PBS and complete Freund's adjuvant (CFA) containing killed mycobacterium tuberculosis strain H37RA at a final concentration of 4 mg/ml (Difco, Detroit, Mich.). The PLP/CFA emulsion was administered to regions above the shoulder and the flanks (total of 4 sites, 50 μl at each injection site). In addition, 200 ng of pertussis toxin was injected intraperitoneally on the day of immunization (day 0) and 2 days post-immunization.
The mice then received either intravenous or subcutaneous injections of IDAC (10 or 26 nmol/injection) or peptides (100 nmol/injection for Ac-PLP-BPI-NH2-2 or 50 nmol/injection/mouse for Ac-PLP-cIBR1-NH2). The prophylactic disease suppression was carried out with subcutaneous or intravenous injections of IDAC molecules on days 4 and 7, or BPI molecules on days 4, 7, and 10. Mice receiving vaccine-like treatment were given subcutaneous injections of IDAC and BPI molecules at 11, 8, and 5 days prior to the induction of disease. As negative controls, mice were treated with PBS, 1-domain, and GMB-I-domain. Disease progression was evaluated by monitoring the change in weight of the mice and clinical scoring based on the severity of nerve damage ranging from 0 to 5: 0—no clinical symptoms of disease; 1—tail weakness or limp tail; 2—paraparesis (weakness or partial paralysis of one or two hind limbs); 3—paraplegia (complete paralysis of two hind limbs); 4—paraplegia with forelimb weakness or paralysis; 5—moribund (at this point, the affected mice were euthanized).
(§1) Statistical differences among the groups in clinical disease scores were determined by calculating the average score for each mouse from day 12 to day 17 by one-way analysis of variance followed by Fisher's least significant difference. Statistical differences in body weight among groups were also analyzed in the same fashion, but from day 12 to day 24. Comparison of cytokine concentrations was also performed by one-way analysis of variance. All analyses were performed using StatView (SAS Institute, Cary, N.C.).

[2] = Hydrolysis of maleimide groups upon storage; type: physicochemical; settings: storage after SEC purification; to be used within 48 h
[3] = test system: splenocytes; experiment: Cytokine levels in vitro from splenocytes of treated EAE mice (Q-Plex ELISA); type: cell-based, female SJL/J (H-2^s) mice; settings: IDAC-3 26 nmol/injection s.c. days 4 and 7
Protocol: Representative spleens for each group (IDAC-3 or PBS) from Study 2 were harvested from female SJL/J (H-2^s) mice on days 13 and 35. Splenocytes were dispersed by gently smashing the spleen using the coarse portion of a 1 ml syringe in a petri dish containing RPMI 1640 medium (10% FBS, […]). The cells were then filtered through a 40 micrometer strainer. After centrifugation, the red blood cells were lysed using “ACK lysis buffer,” and the remaining white blood cells were washed three times with medium. Splenocytes (5×10^6 cells/ml) were cultured in parallel in the presence of 20 μM PLP and blank RPMI medium. Supernatants were collected at a 72 h time-point for the measurement of cytokine levels. The samples were then analyzed using a fully quantitative ELISA-based Q-Plex™ Mouse Cytokine-Screen (Quansys Biosciences, Logan, Utah).
as §1

[4] = test system: mouse EAE model; experiment: Suppression of EAE in PLP139-151/CFA-immunized mice (Example 1); type: in vivo, female inbred SJL/J mice
Protocol: Female inbred SJL/J mice, 5-7 weeks old, were randomly divided into different groups. All mice were immunized with PLP139-151 in Freund's complete adjuvant (CFA) to induce EAE, as reported previously (3, 4). The PLP/CFA emulsion (50 μL per site) was administered to four separate regions above the shoulder and on the flanks. In addition, 200 ng of pertussis toxin (List Biological Laboratories Inc., Campbell, Calif.) was injected intraperitoneally on day 0 and 2.
After disease stimulation, one group of mice received intravenous (i.v.) injections of 26 nmol/injection/day of the conjugate IDAC on days 4 and 7. The second and third groups of mice received i.v. injections of 100 nmol/injection/day of Ac-PLP-BPI-NH2-2 and 100 microliter of PBS, respectively, on days 4, 7, and 10. The animals were weighed and observed daily. Disease progression was evaluated observed using a blinded method as reported previously (3, 4). The clinical scores were rated using the following scale: 0—no clinical signs of disease; 1—tail weakness or limp tail; 2—paraparesis (weakness or incomplete paralysis of one or two hind limbs); 3—paraplegia (complete paralysis of two hind limbs); 4—paraplegia with forelimb weakness or paralysis; and 5—moribund or dead.
Statistical differences among the groups in clinical disease scores were determined by calculating the average score for each mouse from the day of disease onset to day 20 by One-way Analysis of Variance followed by Fisher's least significant difference using StatView (SAS Institute, Cary, N.C.). Statistical differences among the groups in body weight were also analyzed in the same way. The presence of significant difference is denoted with p-values of <0.05 or <0.001.

[5] = 3 injections, vaccine-like s.c.
[6] = i.v. 26 nmol/injection days 4 and 7, vs PBS
[7] = i.v. 26 nmol/injection days 4 and 7, vs PBS, p<0.0005, days 12-17
[8] = s.c. 26 nmol/injection days 4 and 7, vs PBS
[9] = vaccine-like s.c. 10 nmol on days -11, -8, -5

B1: [N-(γ-maleimido)-1-oxybutyl]n-I-domain (protein, listed as Homo sapiens)
chain: MGNVDLVFLFDGSMSLQPDEFQKILDFMKDVMKKLSNTSYQFAAVQFSTSYKTEFDFSDYVKRKDPDALLKHVKHMLLLTNTFGAINYVATEVFREELGARPDATKVLIIITDGEATDSGNIDAAKDIIRYIIGIGKHFQTKESQETLHKFASKPASEFVKILDTFEKLKDLFTELQKKIY
modifications: GMBS maleimide-modified lysines
notes: I-domain with lysine amino groups modified by GMBS to carry maleimide groups; negative control and intermediate
For B1, the “suppression of progress of EAE (clinical score, change in body weight, incidence of disease)” value ([1]; vs PBS) was “neither the I-domain nor GMB-I-domain significantly suppressed the progress of EAE”, the onset of disease ([1]; vs PBS) was “slight delay in the onset of the disease” and the “formation of maleimide hydrolysis products (stability)” value [2] was “increased upon storage”.

B2: I-domain: LFA-1 I-domain protein, SEQ ID NO: 1; negative control and carrier protein (protein, listed as Homo sapiens)
chain: B1 chain
With B2 the “suppression of progress of EAE (clinical score, change in body weight, incidence of disease)” value ([1]; vs PBS) was “neither the I-domain nor GMB-I-domain significantly suppressed the progress of EAE” and the onset of disease ([1]; vs PBS) was “slight delay in the onset of the disease”.

B3: (Ac-HSLGKWLGHPDKFC-NH2)n-linker-I-domain (conjugate, listed as Homo sapiens)
chain 1: HSLGKWLGHPDKFC
chain 2: B1 chain
modifications: Ac, NH2 caps; maleimide linker; Chemically synthesized signal 1 moiety peptide with amino acids 139-151 of PLP protein modified with a terminal cysteine
notes: Ac-PLP-Cys-NH2 (capped) peptides conjugated via maleimide linkers to lysine residues of I-domain
In the case of B3, the “maximum toxic concentration (estimated therapeutic window)” value [1, 5] is reported as 26 nmol, the “minimum effective concentration (estimated therapeutic window)” value [1, 5] is reported as 10 nmol and the “clinical scores, IDAC-3 compared with IDAC-1” value ([1]; i.v. 26 nmol/injection days 4 and 7, p<0.005, days 12-17) is reported as “better than IDAC-1 in suppressing EAE”. For the same molecule, the disease incidence [1, 6] was “delays in disease incidence”, the “onset of disease (clinical scores)” value [1, 6] was “delayed the onset of disease” and the “clinical scores (suppression of EAE)” value [1, 7] was “significantly better at suppressing EAE than PBS”. The body weight change [1, 6] was “significantly more effective than PBS in suppressing disease”, the disease incidence [1, 8] was “significantly more efficacious than PBS in suppressing EAE” and the “clinical scores (suppression of EAE)” value ([1]; s.c. 26 nmol/injection days 4 and 7, vs PBS, p<0.005, days 12-17) was “significantly more efficacious than PBS in suppressing EAE”. The “change in body weight” value [1, 8] was “significantly more efficacious than PBS in suppressing EAE”, the anaphylaxis [1, 9] was “did not result in anaphylaxis” and the “efficacy of low dose compared with 26 nmol dose” value [1, 9] was “not as effective as the 26 nmol dose”. The “efficacy of high dose compared with other groups” value ([1]; vaccine-like s.c. 26 nmol/injection days -11, -8, -5, four animals, no statistical analysis) was “seemed to be better than the lower dose (10 nmol/injection) group and similar to the Ac-PLP-BPI-NH2-2-treated group”, the “toxic effect / adverse events (mice affected)” value ([1]; vaccine-like s.c. 26 nmol/injection, third injection (day -5)) was “two of six mice and 2 of the 6 mice” and the “potency compared with Ac-PLP-BPI-NH2-2” value ([1]; vaccine-like s.c. days -11, -8, -5, IDAC-3 10 nmol/injection vs Ac-PLP-BPI-NH2-2 100 nmol/injection) was “less potent than Ac-PLP-BPI-NH2-2”. For the same molecule, the “clinical scores (suppression of EAE)” value ([1]; vaccine-like s.c. days -11, -8, -5, IDAC-3 10 nmol/injection, Ac-PLP-BPI-NH2-2 100 nmol/injection, vs PBS, p<0.005, days 12-17) was “significantly better clinical scores”, the “change in body weight” value ([1]; vaccine-like s.c. days -11, -8, -5, IDAC-3 10 nmol/injection, Ac-PLP-BPI-NH2-2 100 nmol/injection, vs PBS) was “significantly better” and the “onset of disease (incidence of disease)” value ([1]; vaccine-like s.c., IDAC-3 26 nmol/injection days -11, -8, Ac-PLP-BPI-NH2-2 100 nmol/injection days -11, -8, -5) was “Delay in the onset of disease”. The “relapse of disease (long-term effect)” value ([1]; vaccine-like s.c., IDAC-3 26 nmol/injection days -11, -8, Ac-PLP-BPI-NH2-2 100 nmol/injection days -11, -8, -5, days 45-55) was “long-term effect in suppressing relapse of the disease”, the “clinical scores (suppression of EAE)” value ([1]; vaccine-like s.c., IDAC-3 26 nmol/injection days -11, -8, vs PBS, p<0.0001, days 12-17 and 45-55) was “suppressed EAE significantly better than PBS” and the “change of body weight” value ([1]; vaccine-like s.c., IDAC-3 26 nmol/injection days -11, -8, vs PBS, p<0.0001, days 12-24) was “suppressed EAE significantly better than PBS”. The “IL-5 level compared to PBS-treated group” value ([3]; day 13) was “no significant difference”, the IL-10 level ([3]; day 13) was “could not be detected” and the “IL-2 level, PBS-treated vs IDAC-3-treated group” value ([3]; day 13, p<0.05) was “IL-2 cytokine levels were higher than in the IDAC-3-treated group”. For the same molecule, the “IL-2 level, PBS-treated vs IDAC-3-treated group” value ([3]; day 35) was “no significant difference”, the “IL-17 level compared to PBS-treated group” value ([3]; day 35, p<0.0001) was “fourfold lower” and the “IL-5 level compared to PBS-treated group” value ([3]; day 35, p<0.0005) was “significantly higher”. For the same molecule, the “IL-12 level compared to PBS-treated group” value ([3]; day 35, p<0.005) was “significantly lower” and the “IL-10 level compared to PBS group” value ([3]; day 35, p<0.05) was “significantly higher levels”.

B4: (HSLGKWLGHPDKFC)n-linker-I-domain (conjugate, listed as Homo sapiens)
chain 1: HSLGKWLGHPDKFC
chain 2: B1 chain
modifications: maleimide linker conjugation, ~2.5 peptides; Chemically synthesized signal 1 moiety peptide with amino acids 139-151 of PLP protein modified with a terminal cysteine
notes: PLP-Cys-OH peptides conjugated via maleimide linkers to lysine residues of LFA-1 I-domain; average 2.5 peptides per I-domain
In the case of B4, the “clinical disease scores (suppression of EAE)” value ([4]; i.v., IDAC 26 nmol/injection days 4, 7, Ac-PLP-BPI-NH2-2 100 nmol/injection days 4, 7, 10, vs PBS, p<0.0001, days 12-17) is reported as “significant efficacy to suppress the progress of EAE”, the incidence of disease ([4]; i.v., IDAC 26 nmol/injection days 4, 7, Ac-PLP-BPI-NH2-2 100 nmol/injection days 4, 7, 10, vs PBS, p<0.0001, days 12-24) is reported as “delayed” and the “change in body weight” value ([4]; i.v., IDAC 26 nmol/injection days 4, 7, vs PBS) is reported as “prevent the changes of bodyweights of the mice significantly”. The “efficacy compared with the BPI molecule” value ([4]; two i.v. injections of 26 nmol IDAC vs three of 100 nmol Ac-PLP-BPI-NH2-2) was “appeared less than that of the BPI molecule”, the disease incidence [1, 6] was “delays in disease incidence” and the “onset of disease (clinical scores)” value [1, 6] was “delayed the onset of disease”. The “clinical scores (suppression of EAE)” value [1, 7] was “significantly better at suppressing EAE than PBS” and the body weight change [1, 6] was “significantly more effective than PBS in suppressing disease”.
